Source: the supplement of paper PMC10065799, “High-throughput profiling of sequence recognition by tyrosine kinases and SH2 domains using bacterial peptide display” (eLife, 2023)

Tests used:
SHP2-C SH2 = test: SH2 binding enrichment of the phosphorylated peptide, bacterial display (enrichment ratio); higher = better substrate or ligand; peptides without Tyr show the background
c-Src SH2 = test: as above
Grb2 SH2 = Grb2 SH2 (UniProt P62993); test: as above
MERTK = MERTK (UniProt Q12866); test: phosphorylation enrichment, bacterial display (enrichment ratio); higher = better substrate or ligand; peptides without Tyr show the background
FGFR3 = FGFR3 (UniProt P22607); test: as above
Fer (mouse) = test: as above
FGFR1 = FGFR1 (UniProt P11362); test: as above
EPHB2 = EPHB2 (UniProt P29323); test: as above
c-Src = test: as above
c-Abl (mouse) = test: as above
AncSZ = test: as above
EPHB1 = EPHB1 (UniProt P54762); test: as above
Fyn = Fyn (UniProt P06241); test: as above
Hck = Hck (UniProt P08631); test: as above
Jak2 = Jak2 (UniProt O60674); test: as above
Fes = Fes (UniProt P07332); test: as above
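Wherever SH2 binding enrichment of the phosphorylated peptide, bacterial display is given: peptide library displayed on the E. coli surface as eCPX fusions, selected cells deep-sequenced, score is each peptide's frequency after selection divided by its frequency in the input.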
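Wherever phosphorylation enrichment, bacterial display is given: 11-residue human phosphosite peptides and single-mutation variants displayed on the E. coli surface, counted by deep sequencing, each peptide's frequency after selection divided by its frequency in the unselected input library; frequency after pTyr selection over input frequency; kinase dosed for 20-30% of maximal phosphorylation in three min.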

Chain of FGFR1 (P11362 whole entry, looked up): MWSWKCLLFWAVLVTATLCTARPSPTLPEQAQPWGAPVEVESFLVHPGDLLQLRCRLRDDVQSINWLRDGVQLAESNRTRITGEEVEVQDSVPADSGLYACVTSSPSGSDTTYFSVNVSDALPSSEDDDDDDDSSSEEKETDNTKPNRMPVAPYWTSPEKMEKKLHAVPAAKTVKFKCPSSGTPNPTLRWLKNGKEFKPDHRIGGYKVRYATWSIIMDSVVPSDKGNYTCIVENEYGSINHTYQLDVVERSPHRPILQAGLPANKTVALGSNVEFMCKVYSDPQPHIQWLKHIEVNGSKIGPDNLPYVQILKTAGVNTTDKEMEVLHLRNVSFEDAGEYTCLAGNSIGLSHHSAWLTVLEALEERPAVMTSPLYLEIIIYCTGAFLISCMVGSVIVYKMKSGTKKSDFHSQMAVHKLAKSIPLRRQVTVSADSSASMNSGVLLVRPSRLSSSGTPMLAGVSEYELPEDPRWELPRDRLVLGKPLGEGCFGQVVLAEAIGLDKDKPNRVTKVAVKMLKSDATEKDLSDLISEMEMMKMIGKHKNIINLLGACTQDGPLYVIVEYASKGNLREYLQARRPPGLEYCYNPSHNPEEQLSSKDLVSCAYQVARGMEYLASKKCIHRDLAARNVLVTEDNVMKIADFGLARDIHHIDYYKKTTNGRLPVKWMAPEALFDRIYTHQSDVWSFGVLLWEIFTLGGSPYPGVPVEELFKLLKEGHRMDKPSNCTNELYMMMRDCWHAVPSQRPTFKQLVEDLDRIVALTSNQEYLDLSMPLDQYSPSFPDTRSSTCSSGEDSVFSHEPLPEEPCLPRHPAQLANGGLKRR
Chain of Fyn (P06241 whole entry, looked up): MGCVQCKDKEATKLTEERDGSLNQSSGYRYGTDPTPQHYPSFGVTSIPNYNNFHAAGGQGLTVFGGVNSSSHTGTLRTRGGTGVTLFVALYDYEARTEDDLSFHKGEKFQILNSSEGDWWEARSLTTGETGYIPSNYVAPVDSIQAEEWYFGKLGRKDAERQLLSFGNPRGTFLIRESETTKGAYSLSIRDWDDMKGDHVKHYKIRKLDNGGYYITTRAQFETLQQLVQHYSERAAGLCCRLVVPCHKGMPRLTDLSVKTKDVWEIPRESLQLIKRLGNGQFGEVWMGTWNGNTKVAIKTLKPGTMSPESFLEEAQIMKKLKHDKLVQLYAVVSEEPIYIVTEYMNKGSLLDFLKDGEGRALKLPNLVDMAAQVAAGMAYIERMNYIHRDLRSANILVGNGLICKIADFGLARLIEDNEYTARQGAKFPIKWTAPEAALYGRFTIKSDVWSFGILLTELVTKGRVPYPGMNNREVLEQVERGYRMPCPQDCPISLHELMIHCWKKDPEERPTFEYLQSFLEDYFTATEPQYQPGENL
Chain of Fes (P07332 whole entry, looked up, the tested form may be a part): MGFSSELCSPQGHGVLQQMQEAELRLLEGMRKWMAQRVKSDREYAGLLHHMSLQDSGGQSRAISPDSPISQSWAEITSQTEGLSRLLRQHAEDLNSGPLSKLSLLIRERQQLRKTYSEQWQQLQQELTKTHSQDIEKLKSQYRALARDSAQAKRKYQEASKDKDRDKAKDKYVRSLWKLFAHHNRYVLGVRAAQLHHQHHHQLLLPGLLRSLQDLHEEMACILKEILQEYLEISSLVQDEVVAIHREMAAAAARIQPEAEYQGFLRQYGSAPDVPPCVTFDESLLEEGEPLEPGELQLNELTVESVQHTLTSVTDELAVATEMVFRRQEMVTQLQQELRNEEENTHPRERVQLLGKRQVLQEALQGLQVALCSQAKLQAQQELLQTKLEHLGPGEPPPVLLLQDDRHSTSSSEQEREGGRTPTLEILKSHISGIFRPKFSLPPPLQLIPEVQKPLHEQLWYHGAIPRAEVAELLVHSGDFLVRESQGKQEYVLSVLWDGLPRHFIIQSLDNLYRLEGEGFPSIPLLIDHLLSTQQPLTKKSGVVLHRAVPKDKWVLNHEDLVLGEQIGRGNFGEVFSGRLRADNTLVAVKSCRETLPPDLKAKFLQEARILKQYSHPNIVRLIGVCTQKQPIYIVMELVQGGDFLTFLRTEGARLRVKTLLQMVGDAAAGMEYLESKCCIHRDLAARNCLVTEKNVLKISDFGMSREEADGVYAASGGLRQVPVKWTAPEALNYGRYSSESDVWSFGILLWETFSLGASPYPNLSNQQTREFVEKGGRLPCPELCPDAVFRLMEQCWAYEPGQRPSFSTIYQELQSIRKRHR
Chain of EPHB1 (P54762 whole entry, looked up): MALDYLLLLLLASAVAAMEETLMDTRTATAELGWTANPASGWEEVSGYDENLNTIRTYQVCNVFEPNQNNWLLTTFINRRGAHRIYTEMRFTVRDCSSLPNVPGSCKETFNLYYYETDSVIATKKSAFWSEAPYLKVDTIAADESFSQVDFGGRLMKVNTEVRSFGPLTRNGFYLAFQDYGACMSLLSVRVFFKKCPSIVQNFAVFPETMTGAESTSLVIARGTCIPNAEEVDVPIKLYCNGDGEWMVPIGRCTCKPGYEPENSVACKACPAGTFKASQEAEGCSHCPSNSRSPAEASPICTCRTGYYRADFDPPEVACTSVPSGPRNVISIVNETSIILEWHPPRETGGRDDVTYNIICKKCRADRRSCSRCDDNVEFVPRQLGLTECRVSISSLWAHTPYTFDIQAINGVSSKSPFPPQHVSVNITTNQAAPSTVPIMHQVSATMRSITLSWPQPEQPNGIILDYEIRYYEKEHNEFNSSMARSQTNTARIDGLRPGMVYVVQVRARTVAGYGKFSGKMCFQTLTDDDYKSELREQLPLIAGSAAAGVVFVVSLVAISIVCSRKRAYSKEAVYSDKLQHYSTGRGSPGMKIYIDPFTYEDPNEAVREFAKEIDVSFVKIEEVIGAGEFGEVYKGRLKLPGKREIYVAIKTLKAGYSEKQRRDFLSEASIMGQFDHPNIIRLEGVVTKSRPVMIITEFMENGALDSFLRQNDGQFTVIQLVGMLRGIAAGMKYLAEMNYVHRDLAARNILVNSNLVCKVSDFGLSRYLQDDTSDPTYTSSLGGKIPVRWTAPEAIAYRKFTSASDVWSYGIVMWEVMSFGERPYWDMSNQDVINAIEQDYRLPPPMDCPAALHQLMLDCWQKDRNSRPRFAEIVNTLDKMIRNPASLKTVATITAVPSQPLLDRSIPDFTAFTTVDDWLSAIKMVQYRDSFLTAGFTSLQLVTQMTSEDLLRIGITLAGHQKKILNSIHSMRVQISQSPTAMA
Chain of FGFR3 (P22607 whole entry, looked up): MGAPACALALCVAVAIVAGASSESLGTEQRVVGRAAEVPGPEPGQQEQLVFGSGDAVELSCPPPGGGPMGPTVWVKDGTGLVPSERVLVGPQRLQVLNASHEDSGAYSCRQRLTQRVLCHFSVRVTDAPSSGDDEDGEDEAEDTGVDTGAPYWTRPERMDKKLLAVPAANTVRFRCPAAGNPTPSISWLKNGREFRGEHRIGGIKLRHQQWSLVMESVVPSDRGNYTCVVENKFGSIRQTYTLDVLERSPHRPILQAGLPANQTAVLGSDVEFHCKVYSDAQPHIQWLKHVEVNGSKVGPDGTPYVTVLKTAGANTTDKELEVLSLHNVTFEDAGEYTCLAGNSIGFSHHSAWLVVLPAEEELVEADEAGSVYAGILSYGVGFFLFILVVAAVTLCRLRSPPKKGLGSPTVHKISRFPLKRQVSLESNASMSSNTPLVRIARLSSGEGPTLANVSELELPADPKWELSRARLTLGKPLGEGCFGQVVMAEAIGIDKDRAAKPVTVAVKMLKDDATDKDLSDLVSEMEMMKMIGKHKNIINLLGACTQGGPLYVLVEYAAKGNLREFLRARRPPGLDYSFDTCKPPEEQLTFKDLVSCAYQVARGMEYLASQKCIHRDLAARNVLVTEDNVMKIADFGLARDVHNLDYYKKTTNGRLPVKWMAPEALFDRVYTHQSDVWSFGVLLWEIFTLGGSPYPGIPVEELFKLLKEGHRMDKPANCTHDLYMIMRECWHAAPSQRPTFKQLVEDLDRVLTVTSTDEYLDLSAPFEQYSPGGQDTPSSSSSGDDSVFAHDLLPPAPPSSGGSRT
Chain of MERTK (Q12866 whole entry, looked up): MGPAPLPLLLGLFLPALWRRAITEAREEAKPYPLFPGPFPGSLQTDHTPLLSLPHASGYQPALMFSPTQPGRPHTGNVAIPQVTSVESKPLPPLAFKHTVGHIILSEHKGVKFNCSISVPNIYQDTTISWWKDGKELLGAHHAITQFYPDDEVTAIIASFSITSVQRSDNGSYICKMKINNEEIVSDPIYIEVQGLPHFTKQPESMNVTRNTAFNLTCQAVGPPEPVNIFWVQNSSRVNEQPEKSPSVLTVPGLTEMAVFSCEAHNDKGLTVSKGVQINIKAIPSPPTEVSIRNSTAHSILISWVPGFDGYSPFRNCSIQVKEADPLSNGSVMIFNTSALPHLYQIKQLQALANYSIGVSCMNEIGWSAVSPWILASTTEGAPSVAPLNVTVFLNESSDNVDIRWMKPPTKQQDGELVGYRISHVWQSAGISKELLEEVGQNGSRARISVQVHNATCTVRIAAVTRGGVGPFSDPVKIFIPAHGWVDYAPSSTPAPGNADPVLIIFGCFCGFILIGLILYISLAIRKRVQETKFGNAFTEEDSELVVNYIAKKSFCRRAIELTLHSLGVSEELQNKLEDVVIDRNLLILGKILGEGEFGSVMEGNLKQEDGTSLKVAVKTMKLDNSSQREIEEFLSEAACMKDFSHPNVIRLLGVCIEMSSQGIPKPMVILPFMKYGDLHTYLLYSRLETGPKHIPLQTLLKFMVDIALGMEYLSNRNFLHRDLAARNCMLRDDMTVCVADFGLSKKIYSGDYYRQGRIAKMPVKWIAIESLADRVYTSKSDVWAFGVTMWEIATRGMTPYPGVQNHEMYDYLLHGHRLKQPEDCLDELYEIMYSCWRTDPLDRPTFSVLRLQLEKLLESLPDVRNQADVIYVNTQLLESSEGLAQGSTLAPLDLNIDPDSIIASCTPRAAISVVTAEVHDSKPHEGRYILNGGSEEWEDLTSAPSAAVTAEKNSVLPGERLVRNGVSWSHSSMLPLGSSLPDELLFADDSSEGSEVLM

| SH2 binding enrichment (SHP2-C SH2) | SH2 binding enrichment (c-Src SH2) | SH2 binding enrichment (Grb2 SH2) | Sequence | phosphorylation enrichment (MERTK) | phosphorylation enrichment (FGFR3) | phosphorylation enrichment (Fer (mouse)) | phosphorylation enrichment (FGFR1) | phosphorylation enrichment (EPHB2) | phosphorylation enrichment (c-Src) | phosphorylation enrichment (c-Abl (mouse)) | phosphorylation enrichment (AncSZ) | phosphorylation enrichment (EPHB1) | phosphorylation enrichment (Fyn) | phosphorylation enrichment (Hck) | phosphorylation enrichment (Jak2) | phosphorylation enrichment (Fes) |
| --- | --- | --- | --- | --- | --- | --- | --- | --- | --- | --- | --- | --- | --- | --- | --- | --- |
| 0.855 | 0.712 | 0.978 | CPSLPYSPVSS [CAMKK2_Y128] | 0.527 | 0.7 | 3.14 | 0.588 | 0.607 | 0.787 | 0.654 | 0.813 | 0.491 | 0.545 | 0.497 | 0.905 | 0.847 |
| 1 | 0.845 | 1.25 | ARMTNCGLPRY [TSPAN12_Y138_Y138C] | 0.354 | 0.487 | 0.335 | 0.446 | 0.365 | 0.456 | 0.575 | 0.588 | 0.487 | 0.394 | 0.453 | 0.519 | 0.602 |
| 0.985 | 0.836 | 1.09 | KPSLKYVTYGN [GALNTL5_Y404_G401S] | 0.348 | 0.516 | 0.417 | 0.4 | 0.349 | 0.387 | 0.408 | 0.577 | 0.334 | 0.379 | 0.462 | 0.443 | 0.65 |
| 0.807 | 0.597 | 0.836 | SQETFYRVSNM [ABCD1_Y181_Q178E_YF] | 0.448 | 0.473 | 0.443 | 0.386 | 0.528 | 0.49 | 0.86 | 0.61 | 0.412 | 0.396 | 0.457 | 0.7 | 0.763 |
| 2.77 | 5.28 | 0.953 | VLAAQYTTVGR [SGSH_Y240_D235V] | 0.421 | 0.48 | 0.394 | 0.352 | 0.307 | 0.445 | 0.514 | 0.551 | 0.503 | 0.367 | 0.543 | 0.426 | 0.598 |
| 0.7 | 0.711 | 0.979 | VVTFSYKPPGN [RBL2_Y544] | 0.431 | 0.519 | 0.367 | 0.592 | 0.476 | 0.423 | 0.673 | 0.634 | 0.455 | 0.42 | 0.429 | 0.911 | 0.696 |
| 1.64 | 1.41 | 1.96 | LLVVVYKFRCF [PSEN1_Y154_L153V_YF] | 0.463 | 0.676 | 0.471 | 0.446 | 0.45 | 0.455 | 1.19 | 0.949 | 0.446 | 0.359 | 0.462 | 0.707 | 1.3 |
| 0.775 | 0.461 | 0.719 | VMSMNYRVGAL [BCHE_Y174_V170M] | 0.416 | 0.573 | 0.438 | 0.485 | 0.592 | 0.484 | 0.686 | 0.767 | 0.578 | 0.462 | 0.447 | 0.715 | 0.878 |
| 0.874 | 7.34 | 1.01 | TLNHQYDYTFH [CSNK1A1_Y292_D297H] | 1.11 | 1.38 | 1.4 | 2.69 | 0.873 | 1.16 | 0.512 | 0.998 | 0.772 | 0.536 | 0.596 | 0.654 | 0.753 |
| 0.8 | 0.709 | 0.87 | FFSSEYHCVGG [CTSC_Y345_Y347C_YF] | 0.651 | 4.98 | 0.545 | 7.57 | 2.15 | 2.1 | 1.88 | 2.38 | 2.37 | 1.58 | 1.66 | 1.08 | 1.17 |
| 0.514 | 0.381 | 0.635 | IGEGTYGVLYK [CDK2_Y15_V18L] | 2.63 | 0.632 | 0.808 | 0.416 | 2.75 | 5.6 | 0.587 | 0.817 | 1.55 | 8.4 | 7.04 | 0.635 | 1.04 |
| 0.762 | 0.61 | 0.874 | GRQGIYTENKR [GPR143_Y231_E235K] | 0.53 | 0.477 | 0.346 | 0.477 | 0.347 | 0.529 | 0.46 | 0.723 | 0.349 | 0.372 | 0.437 | 0.527 | 0.585 |
| 0.708 | 0.382 | 0.796 | CTLNVYRQLHN [LUZP1_Y1036_S1034N] | 0.475 | 0.749 | 0.516 | 0.558 | 0.585 | 0.473 | 0.739 | 1.05 | 0.753 | 0.459 | 0.551 | 1 | 1.28 |
| 0.599 | 0.444 | 0.705 | SDVDLYQVRTA [PSMD9_Y70] | 0.411 | 0.505 | 0.648 | 0.419 | 0.538 | 1.89 | 0.735 | 0.792 | 0.555 | 1.41 | 4.25 | 0.645 | 0.738 |
| 0.97 | 0.507 | 0.92 | RDIHDYIKHLG [UNC13C_Y308] | 0.46 | 0.474 | 0.582 | 0.449 | 0.985 | 0.487 | 0.373 | 0.9 | 0.597 | 0.576 | 0.519 | 0.614 | 0.696 |
| 0.809 | 0.66 | 1.16 | TLKDVCDDGKF [RPS6KA3_Y483_Y483C_YF] | 0.498 | 0.601 | 0.523 | 0.583 | 0.545 | 0.433 | 0.885 | 1.03 | 0.555 | 0.446 | 0.427 | 0.873 | 1.1 |
| 0.524 | 0.47 | 0.825 | GIVEDYRPPVY [ACVRL1_Y421_F425V] | 0.403 | 0.53 | 0.479 | 0.458 | 0.547 | 0.437 | 0.539 | 0.817 | 0.524 | 0.406 | 0.505 | 0.77 | 0.953 |
